The results in this text go back to patent US20250340631A1 (HARBOUR BIOMED SHANGHAI, published 2025).

Residue numbers refer to the chain shown, from its start.

The target of test [1] is T1, human CLDN18.2 (human).
T1 construct: the HEK293 line was made with a GenScript plasmid; also called hCLDN18.2
The experiment in a line: FACS on SNU601 cells.
Protocol: (§1) The binding affinity of an antibody was detected by FACS using human CLDN18.1-expressing HEK293 cells, human CLDN18.2-expressing HEK293 cells, NUGC4_D8 cells and SNU601 cells endogenously expressing human CLDN18.2 (Cobioer, CBP60507). […] The cell density was adjusted to 10⁶ cells/mL, and 50 μL of the cell suspension was added to each well of a 96-well plate. Antibodies were diluted to different concentrations with FACS buffer, and 50 μL of the antibody dilution was added to each well of the 96-well plate. After 2 h of incubation at 4° C., the plate was washed twice with FACS buffer. […] After 1 h of incubation at 4° C., the plate was washed twice with FACS buffer. The cells were resuspended in fixative solution, and then the fluorescence of the cells was monitored using an FACS instrument (ACEA NovoCyte).

Test [2] deals with T1, human CLDN18.2. The experiment in a line: FACS on NUGC4_D8 cells.
Protocol: as §1
The target in test [3] is T1, human CLDN18.2. Briefly: competition FACS on HEK293/hCLDN18.2 cells; competitor 10 nM biotinylated PR000400.
Protocol: (§2) This example is to study the binding of anti-human CLDN18.2 HCAb monoclonal antibodies to the epitope region of human CLDN18.2 antigen. Competitive binding experiments were performed at the cellular level using HEK293/hCLDN18.2 cells overexpressing human CLDN18.2. […] Then suspension of HEK293/hCLDN18.2 cells overexpressing human CLDN18.2 were adjusted to 3×10⁶ cells/mL, seeded 50 L/well. The cells were co-incubated at 4° C. for 2 h. The cells in each well were washed twice with 200 μL of pre-cooled FACS buffer (2% FBS in PBS) and centrifuged at 500 g at 4° C. for 5 min, and then the supernatant was discarded. […] The cells in each well were washed twice with 200 μL of pre-cooled FACS buffer (2% FBS in PBS) and centrifuged at 500 g at 4° C. for 5 min, and then the supernatant was discarded. Finally, the cells in each well were resuspended in 200 μL of pre-cooled FACS buffer, and the fluorescence signal values were read using a BD FACS CANTOII.
The target of test [4] is T1, human CLDN18.2. Briefly: competition FACS on HEK293/hCLDN18.2 cells; competitor 200 nM biotinylated PR004549.
Protocol: as §2
Test [5] deals with T1, human CLDN18.2. The experiment in a line: FACS on NUGC4_D8 cells. The source holds these as a separate data set.
Protocol: (§3) Antibodies were assayed for binding affinity by FACS. Test cells include HEK293/hCLDN18.2, HEK293/hCLDN18.1, NUGC4_D8 and Jurkat cells. […] The cell density was adjusted to 10⁶ cells/mL, and 50 μL of the cell suspension was added to each well of a 96-well plate. Antibodies were diluted to different concentrations with FACS buffer, and 50 μL of the antibody dilution was added to each well of the 96-well plate. After 2 h of incubation at 4° C., the plate was washed twice with FACS buffer. […] After 1 h of incubation at 4° C., the plate was washed twice with FACS buffer. The cells were resuspended in fixative solution, and then the fluorescence of the cells was monitored using an FACS instrument (ACEA NovoCyte).
For test [6], the target named is T1, human CLDN18.2. Briefly: cell-based or functional assay.
Test [7] deals with CLDN18.2 of SNU620 cells (methionine to leucine at amino acid 149) (human, UniProt P56856-2 1-261). The experiment in a line: cell-based or functional assay.
Chain of CLDN18.2 of SNU620 cells (methionine to leucine at amino acid 149) (P56856 other isoform, or with tags, fused parts or gaps limits assumed): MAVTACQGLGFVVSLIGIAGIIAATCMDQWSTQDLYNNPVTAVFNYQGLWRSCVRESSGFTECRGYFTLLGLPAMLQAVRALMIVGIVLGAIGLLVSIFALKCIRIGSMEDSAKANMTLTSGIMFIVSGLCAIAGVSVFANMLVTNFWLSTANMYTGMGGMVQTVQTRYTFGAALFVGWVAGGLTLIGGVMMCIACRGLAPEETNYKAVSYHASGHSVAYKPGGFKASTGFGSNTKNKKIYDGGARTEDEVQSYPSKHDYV
Test [8] addresses T2, human CLDN18.1 (human, UniProt P56856 1-261).
T2 construct: whole, on cells; also called hCLDN18.1
The experiment in a line: FACS on HEK293/hCLDN18.1 cells.
Protocol: as §3

Test [9] has as its target T3, human CD3 on Jurkat cells (human, UniProt P07766 23-207).
T3 construct: whole, on cells; on cells it stands in the whole CD3/TCR complex; also called CD3-expressing cells
Briefly: FACS on Jurkat cells (CD3).
Protocol: as §3

The target of test [10] is T3, human CD3 on Jurkat cells. The experiment in a line: FACS on Jurkat cells.
Protocol: as §3
The target of test [11] is T1, human CLDN18.2. The experiment in a line: FACS on HEK293/hCLDN18.2 cells.

T3 sequence (P07766 23-207): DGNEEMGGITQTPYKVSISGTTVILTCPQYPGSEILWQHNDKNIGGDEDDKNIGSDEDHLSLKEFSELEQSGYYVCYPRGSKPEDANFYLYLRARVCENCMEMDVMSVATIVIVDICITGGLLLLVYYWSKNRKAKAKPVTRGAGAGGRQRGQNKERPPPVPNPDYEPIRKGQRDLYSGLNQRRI
T2 sequence (P56856 whole entry): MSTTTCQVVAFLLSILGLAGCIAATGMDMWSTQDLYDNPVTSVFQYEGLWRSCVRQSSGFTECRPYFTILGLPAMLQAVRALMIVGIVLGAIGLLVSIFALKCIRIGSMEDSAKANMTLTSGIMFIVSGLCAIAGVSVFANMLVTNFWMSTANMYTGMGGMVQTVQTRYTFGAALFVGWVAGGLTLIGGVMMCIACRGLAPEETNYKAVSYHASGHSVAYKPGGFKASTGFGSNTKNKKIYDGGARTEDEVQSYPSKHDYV

B1: PR004950 (antibody, V domains shown)
VH: EVQLVESGGGLVQPGGSLRLSCAASGFTFSAYWMHWVRQVPGKGLVWVSRINSDGSRTIYADSVKGRFTISRDNAKNTLYLQMNSLRAEDTAVYYCARGEDHDILTGYPIRGQGTMVTVSS
notes: anti-CLDN18.2 HCAb: VH fused to human IgG1 Fc, no light chain; also called R1029P021F07
As usually defined, the EC50 is the concentration that produces a half-maximal response. Higher therefore signals a less potent agent. As usually defined, the IC50 is the concentration needed to halve the response being measured. Low values mean greater potency in that assay, high ones weaker potency in that assay. For the molecule B1, in test [1], the EC50 was 14.6 nM and the “Emax (MFI)” value was 13600 MFI. Further, in test [2], the EC50 stood at 16.1 nM and the “Emax (MFI)” value stood at 206000 MFI. Also, in test [3], the IC50 stood at 23.5 nM and the “Maximum inhibition rate (%)” value worked out at 98.5%. In [4], the IC50 stood at 19.9 nM and the “Maximum inhibition rate (%)” value is 94.3%.

B2: PR005521 (bispecific antibody)
chain 1: EVQLVESGGGLVQPGGSLRLSCAASGFTFSSYWMHWVRQVPGKGLVWVSRINSDGSRTIYADSVKGRFTISRDNAKNTLYLQMNSLRAEDTAVYYCARGEDHDILTGYPIRGQGTTVTVSSGGGGSGGGGSGGGGSEVQLVESGGGLVQPGGSLRLSCAASGFTFSSYWMHWVRQVPGKGLVWVSRINSDGSRTIYADSVKGRFTISRDNAKNTLYLQMNSLRAEDTAVYYCARGEDHDILTGYPIRGQGTTVTVSSASEPKSSDKTHTCPPCPAPEAAGGPSVFLFPPKPKDTLMISRTPEVTCVVVDVSHEDPEVKFNWYVDGVEVHNAKTKPREEQYNSTYRVVSVLTVLHQDWLNGKEYKCKVSNKALPAPIEKTISKAKGQPREPQVCTLPPSREEMTKNQVSLSCAVKGFYPSDIAVEWESNGQPENNYKTTPPVLDSDGSFFLVSKLTVDKSRWQQGNVFSCSVMHEALHNHYTQKSLSLSPGK
chain 2: not shown
chain 3: EVQLLESGGGLVQPGGSLRLSCAASGFTFSTYAMNWVRQAPGKGLEWVSRIRSKYNNYATYYADSVKDRFTISRDDSKSTLYLQMNSLRAEDTAVYYCVRHGNFGNSYVSWFAYWGQGTLVTVSSASTKGPSVFPLAPSSKSTSGGTAALGCLVKDYFPEPVTVSWNSGALTSGVHTFPAVLQSSGLYSLSSVVTVPSSSLGTQTYICNVNHKPSNTKVDKKVEPKSC
notes: third chain is CD3 VH-CH1; PR001848 / PR004533; LALA
B2: in test [5], the EC50 was found to be 13.9 nM. For the same molecule, the “TDCC, Titer EC50 (pM), NUGC4_D8” value in [6] amounted to 73.9 pM. Moreover, the “TDCC, Titer EC50 (pM), SNU620” value in test [7] was 41 pM. The binding result in [8] is “no binding”; in [9], “binds”.

B3: PR005518 (bispecific antibody)
chain 1: EVQLVESGGGLVQPGGSLRLSCAASGFTFSSYWMHWVRQVPGKGLVWVSRINSDGSRTIYADSVKGRFTISRDNAKNTLYLQMNSLRAEDTAVYYCARGEDHDILTGYPIRGQGTTVTVSSASEPKSSDKTHTCPPCPAPEAAGGPSVFLFPPKPKDTLMISRTPEVTCVVVDVSHEDPEVKFNWYVDGVEVHNAKTKPREEQYNSTYRVVSVLTVLHQDWLNGKEYKCKVSNKALPAPIEKTISKAKGQPREPQVCTLPPSREEMTKNQVSLSCAVKGFYPSDIAVEWESNGQPENNYKTTPPVLDSDGSFFLVSKLTVDKSRWQQGNVFSCSVMHEALHNHYTQKSLSLSPGK
chain 2: not shown
light: QAVVTQEPSLTVSPGGTVTLTCRSSTGAVTTSNYANWVQQKPGQAPRGLIGGTNKRAPWTPARFSGSLLGDKAALTLLGAQPEDEAEYFCALWYSNLWVFGGGTKLTVLGQPKAAPSVTLFPPSSEELQANKATLVCLISDFYPGAVTVAWKADSSPVKAGVETTTPSKQSNNKYAASSYLSLTPEQWKSHRSYSCQVTHEGSTVEKTVAPTECS
notes: structure 2 (2+1 HCAb-Fc-Fab, CD3 VH-CH1 at the C-terminus of one HCAb chain); PR001848 / PR004533; LALA
Molecule B3 had an EC50 in test [5] of 20.5 nM. Besides, in test [6], the “TDCC, Titer EC50 (pM), NUGC4_D8” value was found to be 30.6 pM. Further, the binding result in test [8] is “no binding”; in [9] it was “binds”.

B4: PR005522 (bispecific antibody, human IgG1, lambda, L234A L235A)
chain: B2 chain 1
heavy: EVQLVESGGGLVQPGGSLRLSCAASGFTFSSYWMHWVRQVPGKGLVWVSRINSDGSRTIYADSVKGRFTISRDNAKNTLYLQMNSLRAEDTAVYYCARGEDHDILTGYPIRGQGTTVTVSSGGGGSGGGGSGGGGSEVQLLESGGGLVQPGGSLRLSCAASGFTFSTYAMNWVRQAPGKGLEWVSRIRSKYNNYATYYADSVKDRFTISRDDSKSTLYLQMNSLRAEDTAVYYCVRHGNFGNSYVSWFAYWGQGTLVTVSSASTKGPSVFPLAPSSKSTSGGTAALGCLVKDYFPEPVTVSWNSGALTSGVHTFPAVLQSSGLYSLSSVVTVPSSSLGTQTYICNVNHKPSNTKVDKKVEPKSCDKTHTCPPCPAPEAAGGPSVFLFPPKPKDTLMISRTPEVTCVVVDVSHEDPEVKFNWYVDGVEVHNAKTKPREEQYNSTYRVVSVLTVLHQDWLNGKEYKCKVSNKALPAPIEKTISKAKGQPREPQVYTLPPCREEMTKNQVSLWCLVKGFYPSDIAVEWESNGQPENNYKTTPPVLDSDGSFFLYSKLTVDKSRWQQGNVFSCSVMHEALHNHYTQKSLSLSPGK
light: B3 light
notes: PR001848 / PR004533; LALA
For the molecule B4, the EC50 in [5] stood at 13.9 nM. Besides, the “TDCC, Titer EC50 (pM), NUGC4_D8” value in test [6] stood at 186 pM. In addition, the binding result in [8] is “no binding”; in [9], “binds”.

B5: PR005525 (bispecific antibody, human IgG1, lambda, L234A L235A)
chain: EVQLVESGGGLVQPGGSLRLSCAASGFTFSSYWMHWVRQVPGKGLVWVSRINSDGSRTIYADSVKGRFTISRDNAKNTLYLQMNSLRAEDTAVYYCARGEDHDILTGYPIRGQGTTVTVSSGGGGSGGGGSGGGGSEVQLVESGGGLVQPGGSLRLSCAASGFTFSSYWMHWVRQVPGKGLVWVSRINSDGSRTIYADSVKGRFTISRDNAKNTLYLQMNSLRAEDTAVYYCARGEDHDILTGYPIRGQGTTVTVSSGGGGSGGGGSGGGGSEVQLVESGGGLVQPGGSLRLSCAASGFTFSSYWMHWVRQVPGKGLVWVSRINSDGSRTIYADSVKGRFTISRDNAKNTLYLQMNSLRAEDTAVYYCARGEDHDILTGYPIRGQGTTVTVSSASEPKSSDKTHTCPPCPAPEAAGGPSVFLFPPKPKDTLMISRTPEVTCVVVDVSHEDPEVKFNWYVDGVEVHNAKTKPREEQYNSTYRVVSVLTVLHQDWLNGKEYKCKVSNKALPAPIEKTISKAKGQPREPQVCTLPPSREEMTKNQVSLSCAVKGFYPSDIAVEWESNGQPENNYKTTPPVLDSDGSFFLVSKLTVDKSRWQQGNVFSCSVMHEALHNHYTQKSLSLSPGK
heavy: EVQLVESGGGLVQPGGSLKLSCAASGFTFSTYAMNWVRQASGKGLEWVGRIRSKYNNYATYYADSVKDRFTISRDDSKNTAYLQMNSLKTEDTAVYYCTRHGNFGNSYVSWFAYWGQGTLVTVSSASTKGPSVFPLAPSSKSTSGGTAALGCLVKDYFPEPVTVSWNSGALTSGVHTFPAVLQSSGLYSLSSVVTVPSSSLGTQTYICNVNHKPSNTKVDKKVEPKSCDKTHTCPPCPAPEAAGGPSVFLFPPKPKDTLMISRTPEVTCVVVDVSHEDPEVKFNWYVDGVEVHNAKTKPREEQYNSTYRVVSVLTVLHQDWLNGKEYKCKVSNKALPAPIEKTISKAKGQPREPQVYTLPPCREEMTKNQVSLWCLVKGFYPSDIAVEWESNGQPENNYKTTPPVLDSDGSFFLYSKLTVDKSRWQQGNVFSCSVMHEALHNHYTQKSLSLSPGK
light: B3 light
notes: structure 7 (3+1 Fab-Fc-VH-VH-VH); PR003886 / PR004533; LALA
Take B5: the half-maximal effective concentration (EC50) in [10] was 26.8 nM; in [5], 12.6 nM. Further, the “TDCC, Titer EC50 (pM), NUGC4_D8” value in [6] was determined as 28.9 pM. Besides, in [8], the binding result was “no binding”.

B6: PR005519 (bispecific antibody)
chain 1: B3 chain 1
chain 2: not shown
chain 3: B2 chain 3
notes: structure 3 (2+1 HCAb-Fc-Fab, CD3 VL-CL at the C-terminus of one HCAb chain; third chain is CD3 VH-CH1); PR001848 / PR004533; LALA
For B6, a half-maximal effect in [5] (EC50) was put at 13.9 nM. Further, the “TDCC, Titer EC50 (pM), NUGC4_D8” value in test [6] came to 32.9 pM. In addition, in test [7], the “TDCC, Titer EC50 (pM), SNU620” value was 70.5 pM. The binding result in test [8] is “no binding”; in [9], “binds”.

B7: PR005399 (bispecific antibody, human IgG1, lambda, L234A L235A)
chain: B2 chain 1 with N52S, D54A, N188S, D190A
heavy: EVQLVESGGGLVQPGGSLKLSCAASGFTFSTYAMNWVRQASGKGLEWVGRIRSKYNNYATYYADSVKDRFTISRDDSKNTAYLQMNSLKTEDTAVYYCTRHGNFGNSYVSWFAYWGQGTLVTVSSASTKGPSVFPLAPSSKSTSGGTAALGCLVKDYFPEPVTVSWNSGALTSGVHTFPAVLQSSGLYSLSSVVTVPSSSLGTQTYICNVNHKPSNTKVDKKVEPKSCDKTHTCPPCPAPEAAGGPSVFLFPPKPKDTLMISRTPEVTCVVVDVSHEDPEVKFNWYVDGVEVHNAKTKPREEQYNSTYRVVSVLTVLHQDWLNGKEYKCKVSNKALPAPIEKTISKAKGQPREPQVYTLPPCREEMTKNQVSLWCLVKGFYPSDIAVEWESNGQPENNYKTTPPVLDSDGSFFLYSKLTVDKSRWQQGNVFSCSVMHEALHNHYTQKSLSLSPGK
light: B3 light
notes: structure 1; CD3 Fab from PR003886, CLDN18.2 VH from PR007243; LALA
For B7, the values for the EC50 in test [10] and in [11] were 81.9 nM and 25.3 nM, respectively. For the same molecule, the “TDCC, Titer EC50 (pM), NUGC4_D8” value in test [6] is 14.8 pM. Further, the “TDCC, Titer EC50 (pM), SNU620” value in test [7] came to 41.1 pM.

B8: PR007082 (bispecific antibody, human IgG1, lambda)
chain: B2 chain 1 with S53H, G55S, S189H, G191S, G281A
heavy: EVQLVESGGGLVQPGGSLKLSCAASGFTFSTYAMNWVRQASGKGLEWVGRIRSKYNNYATYYADSVKDRFTISRDDSKNTAYLQMNSLKTEDTAVYYCTRHGNFGNSYVSWFAYWGQGTLVTVSSASTKGPSVFPLAPSSKSTSGGTAALGCLVKDYFPEPVTVSWNSGALTSGVHTFPAVLQSSGLYSLSSVVTVPSSSLGTQTYICNVNHKPSNTKVDKKVEPKSCDKTHTCPPCPAPEAAGAPSVFLFPPKPKDTLMISRTPEVTCVVVDVSHEDPEVKFNWYVDGVEVHNAKTKPREEQYNSTYRVVSVLTVLHQDWLNGKEYKCKVSNKALPAPIEKTISKAKGQPREPQVYTLPPCREEMTKNQVSLWCLVKGFYPSDIAVEWESNGQPENNYKTTPPVLDSDGSFFLYSKLTVDKSRWQQGNVFSCSVMHEALHNHYTQKSLSLSPGK
light: B3 light
notes: structure 1; CD3 Fab from PR003886, CLDN18.2 VH from PR007248; AAA
On to B8, for which the EC50 in test [10] was 41 nM; in [5], 44.2 nM.

B9: PR005354 (bispecific antibody, human IgG1, lambda, L234A L235A)
chain: B2 chain 1
heavy: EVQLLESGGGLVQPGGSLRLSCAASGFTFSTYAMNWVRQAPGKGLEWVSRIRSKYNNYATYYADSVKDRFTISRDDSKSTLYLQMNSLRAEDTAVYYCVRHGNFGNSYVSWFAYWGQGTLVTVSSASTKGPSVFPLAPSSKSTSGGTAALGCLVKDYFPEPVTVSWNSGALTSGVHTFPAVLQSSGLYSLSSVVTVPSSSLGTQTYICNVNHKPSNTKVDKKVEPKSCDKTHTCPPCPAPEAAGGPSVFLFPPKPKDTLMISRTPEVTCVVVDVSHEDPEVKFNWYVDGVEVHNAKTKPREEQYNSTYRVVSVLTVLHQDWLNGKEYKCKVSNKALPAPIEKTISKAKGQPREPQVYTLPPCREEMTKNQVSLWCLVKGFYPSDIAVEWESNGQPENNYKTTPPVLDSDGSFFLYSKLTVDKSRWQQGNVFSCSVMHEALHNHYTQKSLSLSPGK
light: B3 light
notes: structure 1; CD3 Fab from PR001848, CLDN18.2 VH from PR004533; LALA
Consider B9, for which the EC50 in test [5] amounted to 12.6 nM. Further, the “TDCC, Titer EC50 (pM), NUGC4_D8” value in [6] was 11 pM. The figures for the binding result in test [8] and in test [9] were “no binding” and “binds”, respectively.
